Binding result and binding signal data for two molecules are collected here from article PMC5339705, “OGG1-DNA interactions facilitate NF-κB binding to DNA targets”.

Series [1] deals with T1, p50 (NF-kB1) (UniProt P19838 1-433). Put plainly: EMSA; p50 alone; mildly enhanced by 1 ng OGG1; 10 mM Tris-HCl pH 8.0, 5 mM NaCl, 1 mM EDTA, 1 mM DTT, 0.1 mg/ml BSA, 0.1 µg/µl poly(dI-dC) (stated for NE reactions), 10 fmol probe, 10 µl, RT 5-10 min; 6% gel 0.5x TBE 4 °C. The conditions noted are these: protein: commercial; chain copies: 2; label: 5' biotin on strand 2; blunt. For orientation: Mobility shift assays separate free from complexed probe on a gel.

The target of series [2] is p65 (RelA) (UniProt Q04206 1-551). As to the kind of experiment: EMSA; 15 ng p65 (also 7.5 ng series) with OGG1; 10 mM Tris-HCl pH 8.0, 5 mM NaCl, 1 mM EDTA, 1 mM DTT, 0.1 mg/ml BSA, 0.1 µg/µl poly(dI-dC) (stated for NE reactions), 10 fmol probe, 10 µl, RT 5-10 min; 6% gel 0.5x TBE 4 °C. The conditions noted are these: protein: commercial; chain copies: 2; label: 5' biotin on strand 2; blunt.

Series [3] addresses OGG1 (UniProt O15527 1-345). As to the kind of experiment: EMSA; OGG1 alone; more complex when NF-kB present; 10 mM Tris-HCl pH 8.0, 5 mM NaCl, 1 mM EDTA, 1 mM DTT, 0.1 mg/ml BSA, 0.1 µg/µl poly(dI-dC) (stated for NE reactions), 10 fmol probe, 10 µl, RT 5-10 min; 6% gel 0.5x TBE 4 °C. The conditions noted are these: protein: commercial; label: 5' biotin on strand 2; blunt.
Series [4] concerns the target T1, p50 (NF-kB1). As to the kind of experiment: EMSA; homodimer formed in p65/p50 mix, no OGG1; from 1 min; 10 mM Tris-HCl pH 8.0, 5 mM NaCl, 1 mM EDTA, 1 mM DTT, 0.1 mg/ml BSA, 0.1 µg/µl poly(dI-dC) (stated for NE reactions), 10 fmol probe, 10 µl, RT 5-10 min; 6% gel 0.5x TBE 4 °C. Particulars: protein: commercial; chain copies: 2; label: 5' biotin on strand 2; blunt.

Where only a bound is given, the exact number is not on record here.

T1 sequence (P19838 1-433): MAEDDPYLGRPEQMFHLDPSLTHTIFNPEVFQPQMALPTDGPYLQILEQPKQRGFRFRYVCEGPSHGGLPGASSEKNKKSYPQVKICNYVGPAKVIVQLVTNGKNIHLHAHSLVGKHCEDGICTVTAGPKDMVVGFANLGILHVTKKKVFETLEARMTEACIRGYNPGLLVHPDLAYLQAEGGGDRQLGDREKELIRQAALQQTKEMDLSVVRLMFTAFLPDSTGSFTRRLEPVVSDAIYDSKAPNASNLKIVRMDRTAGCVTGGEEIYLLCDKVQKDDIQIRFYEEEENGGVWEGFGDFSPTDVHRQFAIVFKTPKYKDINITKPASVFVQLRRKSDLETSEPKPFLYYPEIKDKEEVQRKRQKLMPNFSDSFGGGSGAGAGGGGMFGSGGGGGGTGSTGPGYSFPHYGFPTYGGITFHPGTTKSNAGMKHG
p65 (RelA), sequence (Q04206 whole entry): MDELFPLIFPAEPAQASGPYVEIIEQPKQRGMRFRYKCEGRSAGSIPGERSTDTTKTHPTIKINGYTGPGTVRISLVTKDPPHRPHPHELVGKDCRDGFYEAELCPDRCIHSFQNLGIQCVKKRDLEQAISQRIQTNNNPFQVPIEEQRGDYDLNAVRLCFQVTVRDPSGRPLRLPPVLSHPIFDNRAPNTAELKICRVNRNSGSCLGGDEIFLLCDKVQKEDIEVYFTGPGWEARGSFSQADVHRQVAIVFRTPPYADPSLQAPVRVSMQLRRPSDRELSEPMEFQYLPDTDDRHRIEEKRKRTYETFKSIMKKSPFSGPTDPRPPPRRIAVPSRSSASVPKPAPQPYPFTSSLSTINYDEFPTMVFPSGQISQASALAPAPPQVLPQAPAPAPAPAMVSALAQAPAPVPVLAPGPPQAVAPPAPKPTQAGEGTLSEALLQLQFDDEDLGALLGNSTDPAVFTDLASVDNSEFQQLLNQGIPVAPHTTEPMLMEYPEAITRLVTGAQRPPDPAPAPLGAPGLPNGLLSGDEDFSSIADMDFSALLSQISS
OGG1, sequence (O15527 whole entry): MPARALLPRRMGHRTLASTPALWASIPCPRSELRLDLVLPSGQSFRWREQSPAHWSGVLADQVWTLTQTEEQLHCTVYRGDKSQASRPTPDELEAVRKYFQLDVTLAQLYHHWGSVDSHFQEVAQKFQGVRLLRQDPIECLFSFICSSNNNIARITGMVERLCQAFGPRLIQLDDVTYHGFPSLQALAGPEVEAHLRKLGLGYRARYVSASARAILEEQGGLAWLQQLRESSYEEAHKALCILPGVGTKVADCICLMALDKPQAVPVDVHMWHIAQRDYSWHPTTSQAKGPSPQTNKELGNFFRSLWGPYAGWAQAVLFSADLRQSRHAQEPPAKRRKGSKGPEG

B1: κB2-G6 (dsDNA)
DNA 1: TGAGGGGACCCTGAGCTCAGGGAATTTCCCTGG
DNA 2: CCAGGGAAATTCCCTGAGCTCAGGGTCCCCTCA
modifications: 8-oxoG at strand 2 position 23 (opposite C11 of strand 1)
For the molecule B1, the binding result in series [1] and in series [3] was “binds” each time. The molecule further showed a binding signal in series [2] of over 10 fold vs p65 alone.

B2: κB2-Wt (dsDNA)
DNA 1: B1 DNA 1
DNA 2: B1 DNA 2
Consider B2, for which, in series [4], the binding result was “binds”.
